1 substance from patent US20220213140A1 can be followed below.

The target of assay [1] is tocilizumab. Description: BLI (BLItz), biotinylated ligand on sensor, antibody in solution.
The target in assay [2] is tocilizumab. Description: BLItz biolayer interferometry; biotinylated ligand immobilized on the chip, tocilizumab at 41.34, 82.68 and 165.3 nM in PBS (+0.1% BSA); same fitted value in all three rows of the table [C]. A general note: BLI is a label-free optical method that tracks binding on a fibre tip over time.

tocilizumab, sequence (VH, as listed by the source, chain 1 of 2): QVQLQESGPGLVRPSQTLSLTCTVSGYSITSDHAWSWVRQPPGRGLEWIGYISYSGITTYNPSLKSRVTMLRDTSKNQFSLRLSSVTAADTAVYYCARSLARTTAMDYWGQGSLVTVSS
tocilizumab, sequence (VL, as listed by the source, chain 2 of 2): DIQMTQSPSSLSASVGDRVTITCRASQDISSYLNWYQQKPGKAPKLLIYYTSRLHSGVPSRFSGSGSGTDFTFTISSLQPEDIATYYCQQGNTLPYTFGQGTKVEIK

Regarding ligand of MabSelect SuRe, the Kd (in general, a measure of binding affinity in units of concentration) with tocilizumab [1] stood at 8.11 nM. In the assay with tocilizumab [2], the koff (as a rule, a measure of how fast the partners let go of each other) turned out to be 0.00281 s⁻¹ and the kon (in general, the second-order rate constant of association) was 346000 M⁻¹ s⁻¹.
